{
  "source": "patent US20040170601A1",
  "about": "“Method of improving the growth performance of an animal” (priority 2001, published 2004)",
  "molecules": {"B1": {"name": "interleukin 5 (protein, UniProt Q9MYM5 22-134, looked up)", "Interleukin-5": "VENTMNRLVAETLTLLSIHRTLLIGDGNLMISTPVHTNHQLCIEEVFQGIDTLKNQTARGDAVEKLFQNLSLIKEYIDRQKKNCGGERWRVTQFLDYLQVFLGVINTEWTMES", "notes": "recombinant porcine IL-5 protein expressed in E. coli; + / − = with / without antibiotic medicated feed and water, +p = weaner period only"}},
  "key": {"[1]": {"test_system": "H. parasuis, APP and Swine dysentry", "test": "Example 4: deaths and production loss from infectious disease", "format": "in vivo, pigs", "conditions": "for number of deaths during trial: 20 per group; for deaths (autopsy report summary) / production loss (deaths from infectious disease or weight loss): weaner period", "protocol": "This trial evaluated the capacity of IL-5 to improve growth performance and immunity of pigs by comparing the growth rate and health of weaner pigs (28 day old weaners is Day 0 of the trial and the weaner period continued for 42 days) through to the finisher stage (Days 93 to 113) and slaughter (133 days after commencing the trial). The pigs were administered recombinant porcine cytokine, IL-5, and saline was used as a control, with and without standard weaner medicated water and feed in a commercial piggery environment.\n40 pigs per treatment mixed in-groups of 20, with 4 replicates containing standard medicated water and feed and 4 replicates without medicated feed or water.\nThese are possibly a reflection of resistance to infections as all pigs were subjected to a severe exposure of pathogens (deaths occurred from H. parasuis “Glasser's”, APP and Swine dysentry).\nThe production loss in terms of deaths from infectious disease or weight loss as measured by weekly weighing is shown in FIG. 13. No deaths occurred in the IL-5 medicated group (FIG. 13), a factor that influenced the positive effect of IL-5 on increasing total group weight as described above (FIG. 10). The majority of deaths also included prior weight loss, but were recorded as deaths only. The antibiotic medicated groups had reduced numbers of pigs that lost weight during 1 or more weeks during the weaner period compared to the un-medicated groups. The first week after weaning was where the majority (>80%) of pigs lost weight."}, "eosinophils [2]": {"test_system": "eosinophils", "test": "Example 11: IL-5 and IL-3 on eosinophil production", "format": "in vivo, pigs", "excerpt": "The aim of this example was to determine if the effects of IL-3 and IL-5 act synergistically to increase eosinophil levels and antibody production.\nAs IL-3 stimulates the proliferation of pre-active B cells prior to the effects of IL-5, it was believed that administration of both IL-3 and IL-5 would have a greater impact on eosinophil production than the administration of either cytokine alone. An experiment was undertaken using pigs raised under clean PC2 conditions with raised floors. There were 5 treatments with 6 pigs per treatment. Pigs were 5-6 weeks of age. The animals were injected intramuscularly on days 0, 3, 7 and 10 of the experiment with either recombinant cytokines or saline. The treatments include IL-5 and IL-3 alone and given either together at the same time at different sites or to the same animal but with IL-3 being administered one week before IL-5. The treatments were as follows:\nGroup 3—100 μg IL-3+100 μg IL-5 (separate sites)\nThe pigs were bled 4 times per week for the first 2 weeks and once per week for the following 2 weeks and haematology measured using a CellDyn machine. Sera were collected also each week and tested for antibody levels."}, "eosinophils [3]": {"test_system": "eosinophils", "test": "Example 1: recombinant IL-5 and IL-5 DNA on eosinophil numbers in the blood of pigs", "format": "in vivo", "conditions": "recombinant IL-5 100 μg IM on 1 or 2 consecutive days, up to 12 days after treatment", "protocol": "This trial compared the effects of recombinant porcine IL-5 protein and DNA delivered porcine IL-5 on eosinophil numbers in the blood of pigs.\n6 pigs per treatment, approximately 7-8 weeks of age (weaners), mean weight of approx. 15 kg.\nThe experiment was conducted using medicated feed Barastoc EziWean 150 then Bunge Grolean CREEP ad libitum in an experimental environment (PC2 containment facilities).\nRecombinant IL-5 was expressed in E. coli and purified using a GST tag system. (See, for example, Smith, D. B and Johnson, K. S. (1988), Gene, 67:31-40). IL-5 was cleaved from the GST tag, purified and tested in bioassays to confirm activity.\nIL-5 cDNA (including the signal sequence) was cloned into the pCI DNA vector. DNA was purified using the Qiagen Giga Prep kit (Qiagen Inc. USA).\nTotal white cells and eosinophils were counted from slides.\nPre-bleed for haematology and dose with all treatments (1, 2, 3, 4, 5 as shown above)\n8 hrs later, bleed for haematology"}, "[4]": {"test": "Example 5: repeat growth performance trial of IL-5 with normal, reduced and no antibiotics", "format": "in vivo, pigs", "protocol": "This trial repeats the evaluation of IL-5 to improve growth performance and/or immunity of pigs by comparing the growth rate and health of male and female weaner pigs (from 28 days old: Week 0 of the trial) through the weaner (Weeks 0-6), grower (Weeks 6-13) and finisher (Weeks 13-19) stages to slaughter (Week 19), which were administered with recombinant porcine cytokine IL-5, and saline was used as a control, with and without standard weaner medicated water and feed, and reduced antibiotics, in a commercial piggery environment.\nThis trial (weaner/grower/finisher trial) was designed to investigate the effect of providing IL-5 and the controls (saline) from weaning to slaughter with normal, reduced and no antibiotics in water supply. The experiment evaluates the capacity of IL-5 for replacing antibiotics under commercial pig rearing conditions and to determine the effect of continuous administration of the cytokines throughout the life of the pig on performance and carcass characteristics.\nThe experiment was undertaken in a commercial environment where the pigs were weaned at 28 days of age. All injections were 1 ml. There were 16 pigs per treatment, 8 males and 8 females per treatment. The overall weight of pigs in each treatment was similar at the start of the experiment.\n−means no antibiotic supplements in water or feed throughout trial.\n0.5 means single antibiotics used throughout trial at normal dose\n+ means normal antibiotic regime used throughout trial IL-5+ means IL-5 administered during Weaner/Grower/Finisher periods.\nIL-5+p means IL-5 administered during Weaner period only.\nA. Saline injection, 1 ml IM neck muscle.\nB. 100 μg IL-5 injection, 1 ml IM neck muscle.\nWeaner stage: 2 injections per week,\nGrower and finisher stage 1 injection per week.\nPigs were weaned and weighted at the start of the experiment (D0, W0) and weekly until the end of the weaner period (W6), at the end of the grower (W13) and finisher (W19) stages and once during the grower (W9) and finisher (W16) stages. Blood and sera samples were collected at the start (before treatments) and end of the weaner, grower and finisher periods. Blood and sera were taken prior to treatment injection. Haematology (totals and differentials) was performed.\nAt the start of the trial, the mean weight and the variance of all groups was equalised to reduce confounding influence of starting weight. Thus, the positive effects on growth were due to treatment effects."}, "[5]": {"conditions": "2nd trial, normal medication, weaner period"}, "[6]": {"conditions": "normal antibiotics, IL-5 during weaner, grower, finisher periods"}},
  "note": "“Also recorded” adds a separate entry of the source.",
  "data": [
    {"molecule": "B1", "values": [
      {"measurement": "number of deaths during trial", "setting": "[1]; Final (Day 133), medicated", "result": 0},
      {"measurement": "number of deaths during trial", "setting": "[1]; Final (Day 133), un-medicated", "result": 3},
      {"measurement": "number of deaths during trial", "setting": "[1]; Weaner (Day 42), medicated", "result": 0},
      {"measurement": "number of deaths during trial", "setting": "[1]; Weaner (Day 42), un-medicated", "result": 2},
      {"measurement": "condition and health of pigs", "setting": "[1]; medicated", "result": "excellent condition and health compared to other groups"},
      {"measurement": "deaths (autopsy report summary)", "setting": "[1]; medicated", "result": "No deaths or intervention"},
      {"measurement": "production loss (deaths from infectious disease or weight loss)", "setting": "[1]; medicated", "result": "no pig from the medicated IL-5 treatment group lost weight or died from infectious disease"},
      {"measurement": "production loss (deaths from infectious disease or weight loss)", "setting": "[1]; un-medicated", "result": "reduced production loss"},
      {"measurement": "deaths (autopsy report summary)", "setting": "[1]; unmedicated", "result": 2, "unit": "x H. parasuis"},
      {"measurement": "eosinophil percentage of WBC relative to the original value", "setting": "eosinophils [2]; after 4 injections", "result": "approximately 10 times"},
      {"measurement": "eosinophils as a percent of white blood cells", "setting": "eosinophils [2]; single cytokine 100 μg IM days 0, 3, 7, 10", "result": "significant increase in eosinophil levels; also recorded: dramatically increased circulating eosinophil cells"},
      {"measurement": "percentage eosinophils of white blood cells (WBC)", "setting": "eosinophils [3]", "result": "transient (several days)"},
      {"measurement": "percentage eosinophils of white blood cells (WBC)", "setting": "eosinophils [3]; listed as recombinant IL-5", "result": "sustained increase in eosinophil numbers in blood over several days; also recorded: two doses being more effective than one dose; also recorded: more effective than DNA in increasing eosinophil numbers"},
      {"measurement": "increase in average weights over medicated saline control", "setting": "[4]; [5]", "result": 7, "unit": "%"},
      {"measurement": "increase in weight gain over medicated saline control", "setting": "[4]; [5]", "result": 11, "unit": "%"},
      {"measurement": "total group weights, weaner period", "setting": "[4]; no, reduced or normal antibiotics", "result": "beneficial effects on total weights, especially with reduced or no antibiotic supplements"},
      {"measurement": "average weight increases, weaner-only vs continuous IL-5", "setting": "[4]; normal antibiotics", "result": "no significant differences between groups given IL-5 during the weaner or continuously throughout the weaner, grower and finisher periods"},
      {"measurement": "change of final average weight vs saline control", "setting": "[4]; [6]", "result": "~−1.5", "unit": "%"},
      {"measurement": "decrease of final average weight vs saline control", "setting": "[4]; [6]", "result": 1.3, "unit": "kg"},
      {"measurement": "average weights", "setting": "[4]; normal antibiotics, W6 to W13", "result": "consistently higher average weights than the saline control (with normal antibiotics) from the end of the weaner period (W6) to the end of the grower period (W13)"},
      {"measurement": "average weight higher than IL-5+p", "setting": "[4]; normal antibiotics, Week 13", "result": 1.3, "unit": "kg"},
      {"measurement": "average weight higher than saline control", "setting": "[4]; normal antibiotics, Week 13", "result": 4.7, "unit": "kg"},
      {"measurement": "average weight lower than IL-5+p", "setting": "[4]; normal antibiotics, Week 19", "result": 2, "unit": "kg"},
      {"measurement": "average weight lower than saline control", "setting": "[4]; normal antibiotics, Week 19", "result": 1.3, "unit": "kg"},
      {"measurement": "average weight gains during the Weaner period", "setting": "[4]; vs respective saline controls, with or without antibiotic supplements", "result": "consistently higher average weight gains during the Weaner period compared to the respective saline controls with or without antibiotic supplements in water or feed"},
      {"measurement": "average weight gains during the Weaner period", "setting": "[4]; vs saline controls without antibiotic supplements", "result": "consistently higher average weight gains during the Weaner period"}
    ]}
  ]
}
